Assay results from patent US20160130347A1 (Hoffmann-La Roche, published 2016).

Assays:
[1] = molecular target: human MCSP on tumor cells (human, UniProt Q6UVK1 30-2322); test: cell-based or functional assay
human CD3 on T cells = human CD3 on T cells (human, UniProt P07766 23-126); test: cell-based or functional assay
[2] = molecular target: T1, human MCSP(D3 domain)-avi-his (human, UniProt Q6UVK1 1587-2221, limits assumed); test: ratio of ProteOn IgG KD against parental M4-3/ML2 IgG
T1 construct: domain: D3 domain; also called hu-MCSP(D3 domain)-avi-his
T1 sequence (looked up): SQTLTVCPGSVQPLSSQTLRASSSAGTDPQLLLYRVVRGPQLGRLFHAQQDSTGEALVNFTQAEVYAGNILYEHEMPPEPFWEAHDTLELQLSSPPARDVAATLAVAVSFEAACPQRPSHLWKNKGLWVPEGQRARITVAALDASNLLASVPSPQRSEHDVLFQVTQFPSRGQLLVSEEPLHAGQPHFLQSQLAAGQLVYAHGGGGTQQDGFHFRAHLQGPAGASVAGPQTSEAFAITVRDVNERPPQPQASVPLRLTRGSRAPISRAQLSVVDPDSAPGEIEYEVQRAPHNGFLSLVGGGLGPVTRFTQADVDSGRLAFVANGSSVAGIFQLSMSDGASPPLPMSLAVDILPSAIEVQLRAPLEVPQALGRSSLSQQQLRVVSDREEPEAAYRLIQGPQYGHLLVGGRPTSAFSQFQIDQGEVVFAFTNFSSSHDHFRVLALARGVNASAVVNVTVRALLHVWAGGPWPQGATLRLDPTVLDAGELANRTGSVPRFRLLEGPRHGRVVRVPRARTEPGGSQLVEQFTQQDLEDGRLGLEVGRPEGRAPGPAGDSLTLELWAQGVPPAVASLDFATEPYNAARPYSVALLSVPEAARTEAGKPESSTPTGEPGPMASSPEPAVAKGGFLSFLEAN
Experimental: (§1) Briefly, carboxymethylated dextran biosensor chips (CM5, GE Healthcare) were activated with N-ethyl-N′-(3-dimethylaminopropyl)-carbodiimide hydrochloride (EDC) and N-hydroxysuccinimide (NHS) according to the supplier's instructions. Anti-human F(ab′)2 fragment specific capture antibody was diluted with 10 mM sodium acetate, pH 5.0 at 50 μg/ml before injection at a flow rate of 10 μl/minute to achieve approximately up to 10.000 response units (RU) of coupled capture antibody. Following the injection of the capture antibody, 1 M ethanolamine is injected to block unreacted groups. For kinetics measurements, Fabs from bacterial supernatant or purified Fabs were injected at a flow rate of 10 ul/minute for 300 s and a dissociation of 300 s for capture baseline stabilization. Capture levels were in the range of 100-500 RU. […] The surface of the sensorchip was regenerated by injection of glycine pH 1.5 for 30 s at 90 ul/min followed by injection of NaOH for 20 s at the same flow rate. Association rates (kon) and dissociation rates (koff) were calculated using a simple one-to-one Langmuir binding model (ProteOn XPR36 Evaluation Software or Scrubber software (BioLogic)) by simultaneously fitting the association and dissociation sensorgrams. The equilibrium dissociation constant (KD) was calculated as the ratio koff/kon.
(§2) Method exactly as described for the Fab fragments, just purified IgG from mammalian production were used.

cynomolgus MCSP D3 = molecular target: T2, cynomolgus MCSP D3 (cynomolgus); test: as above
T2 construct: domain: D3; also called Cyno MCSP; cynomolgus homologue
Experimental: as §1, §2

human MCSP on tumor cells, sequence (Q6UVK1 30-2322): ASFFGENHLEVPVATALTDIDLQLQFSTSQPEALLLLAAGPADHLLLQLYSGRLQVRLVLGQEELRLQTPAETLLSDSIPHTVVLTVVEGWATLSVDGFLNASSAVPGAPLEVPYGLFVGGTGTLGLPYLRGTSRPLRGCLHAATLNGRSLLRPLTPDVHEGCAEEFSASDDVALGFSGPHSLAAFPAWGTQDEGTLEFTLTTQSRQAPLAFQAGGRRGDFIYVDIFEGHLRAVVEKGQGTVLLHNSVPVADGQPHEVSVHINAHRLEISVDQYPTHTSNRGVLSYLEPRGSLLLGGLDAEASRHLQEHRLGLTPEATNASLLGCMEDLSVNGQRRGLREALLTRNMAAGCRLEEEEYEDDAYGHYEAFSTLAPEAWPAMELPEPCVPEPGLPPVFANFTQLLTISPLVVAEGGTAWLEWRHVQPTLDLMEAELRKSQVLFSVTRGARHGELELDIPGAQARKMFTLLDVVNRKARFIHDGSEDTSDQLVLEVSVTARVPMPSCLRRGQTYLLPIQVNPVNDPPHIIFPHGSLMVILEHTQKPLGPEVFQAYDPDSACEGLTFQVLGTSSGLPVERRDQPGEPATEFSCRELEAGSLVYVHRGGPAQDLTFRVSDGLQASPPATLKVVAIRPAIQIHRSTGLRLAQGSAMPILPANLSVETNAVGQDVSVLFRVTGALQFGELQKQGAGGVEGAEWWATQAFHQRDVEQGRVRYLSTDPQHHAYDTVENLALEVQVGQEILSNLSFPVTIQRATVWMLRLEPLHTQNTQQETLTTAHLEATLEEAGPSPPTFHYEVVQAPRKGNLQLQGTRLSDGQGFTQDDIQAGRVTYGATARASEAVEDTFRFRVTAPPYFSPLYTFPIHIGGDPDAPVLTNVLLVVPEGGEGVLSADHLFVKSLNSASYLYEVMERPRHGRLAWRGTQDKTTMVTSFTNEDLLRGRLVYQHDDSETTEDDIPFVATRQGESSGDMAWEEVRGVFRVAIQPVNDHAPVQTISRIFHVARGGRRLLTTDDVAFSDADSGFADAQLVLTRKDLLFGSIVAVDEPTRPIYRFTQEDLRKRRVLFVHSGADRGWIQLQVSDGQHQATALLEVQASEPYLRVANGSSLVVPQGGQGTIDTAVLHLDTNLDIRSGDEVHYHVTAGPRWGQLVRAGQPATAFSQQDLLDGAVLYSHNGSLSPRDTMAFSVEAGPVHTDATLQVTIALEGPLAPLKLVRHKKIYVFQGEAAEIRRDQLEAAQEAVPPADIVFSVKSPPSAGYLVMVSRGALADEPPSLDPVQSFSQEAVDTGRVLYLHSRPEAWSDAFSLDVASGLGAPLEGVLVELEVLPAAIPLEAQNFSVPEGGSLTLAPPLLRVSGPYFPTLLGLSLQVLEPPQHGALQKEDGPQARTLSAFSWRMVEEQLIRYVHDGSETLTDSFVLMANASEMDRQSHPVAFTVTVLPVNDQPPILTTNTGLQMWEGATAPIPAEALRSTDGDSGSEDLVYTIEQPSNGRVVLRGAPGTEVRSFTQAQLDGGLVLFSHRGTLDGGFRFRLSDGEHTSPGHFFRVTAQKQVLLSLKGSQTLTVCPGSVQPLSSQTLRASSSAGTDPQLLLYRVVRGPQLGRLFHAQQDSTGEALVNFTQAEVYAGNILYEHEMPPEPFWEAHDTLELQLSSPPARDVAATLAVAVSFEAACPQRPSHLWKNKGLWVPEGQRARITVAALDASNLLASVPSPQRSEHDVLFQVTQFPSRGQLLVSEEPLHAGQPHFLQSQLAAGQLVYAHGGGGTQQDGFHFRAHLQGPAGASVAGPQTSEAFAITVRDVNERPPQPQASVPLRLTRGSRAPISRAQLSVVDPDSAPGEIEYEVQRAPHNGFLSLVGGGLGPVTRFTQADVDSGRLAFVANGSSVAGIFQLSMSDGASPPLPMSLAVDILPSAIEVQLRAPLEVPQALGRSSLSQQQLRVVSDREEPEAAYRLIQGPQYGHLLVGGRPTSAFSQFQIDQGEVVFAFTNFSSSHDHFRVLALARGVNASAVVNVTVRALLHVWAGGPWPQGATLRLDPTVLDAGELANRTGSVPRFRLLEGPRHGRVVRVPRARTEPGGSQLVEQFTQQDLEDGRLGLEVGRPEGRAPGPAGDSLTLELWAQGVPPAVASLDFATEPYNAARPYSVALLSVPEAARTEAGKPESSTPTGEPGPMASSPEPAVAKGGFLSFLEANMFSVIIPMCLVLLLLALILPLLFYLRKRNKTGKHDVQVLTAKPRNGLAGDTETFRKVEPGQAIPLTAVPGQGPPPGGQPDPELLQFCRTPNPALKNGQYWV
human CD3 on T cells, sequence (P07766 23-126 limits assumed): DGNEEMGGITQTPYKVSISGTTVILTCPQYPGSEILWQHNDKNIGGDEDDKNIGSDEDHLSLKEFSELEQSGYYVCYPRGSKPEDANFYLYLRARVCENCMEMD

B1: hu Fab (MCSP)-Crossfab (CD3) (bispecific antibody)
chain 1: EVQLQESGPGLVKPSQSLSLTCSVTGYSITSGYYWNWIRQFPGNKLEWMGYITYDGSNNYNPSLKNRISITRDTSKNQFFLKLNSVTTEDTATYYCADFDYWGQGTTLTVSSASTKGPSVFPLAPSSKSTSGGTAALGCLVKDYFPEPVTVSWNSGALTSGVHTFPAVLQSSGLYSLSSVVTVPSSSLGTQTYICNVNHKPSNTKVDKKVEPKSCDGGGGSGGGGSDIQMTQSPSSLSASVGDRVTITCRASQDIRNYLNWYQQKPGKAPKLLIYYTSRLESGVPSRFSGSGSGTDYTLTISSLQPEDFATYYCQQGNTLPWTFGQGTKVEIKSSASTKGPSVFPLAPSSKSTSGGTAALGCLVKDYFPEPVTVSWNSGALTSGVHTFPAVLQSSGLYSLSSVVTVPSSSLGTQTYICNVNHKPSNTKVDKKVEPKSC
light: DIVLTQSPSSLSASLGDRVTISCSASQGIRNYLNWYQQRPDGTVKLLIYYTSSLHSGVPSRFSGSGSGTDYSLTISNLEPEDIATYYCQQYSKLPWTFGGGTKLEIKRTVAAPSVFIFPPSDEQLKSGTASVVCLLNNFYPREAKVQWKVDNALQSGNSQESVTEQDSKDSTYSLSSTLTLSKADYEKHKVYACEVTHQGLSSPVTKSFNRGEC
chain 2: EVQLVESGGGLVQPGGSLRLSCAASGYSFTGYTMNWVRQAPGKGLEWVALINPYKGVSTYNQKFKDRFTISVDKSKNTAYLQMNSLRAEDTAVYYCARSGYYGDSDWYFDVWGQGTLVTVSSASVAAPSVFIFPPSDEQLKSGTASVVCLLNNFYPREAKVQWKVDNALQSGNSQESVTEQDSKDSTYSLSSTLTLSKADYEKHKVYACEVTHQGLSSPVTKSFNRGEC
- EC50 of killing (LDH release) of MV-3 cells, human PBMCs, E:T 10:1, ~24 h [1]: 25.4 pM
- EC50 of killing (LDH release) of MV-3 cells, human PBMCs, E:T 10:1, ~24 h (human CD3 on T cells): 25.4 pM

B2: hu Fab (MCSP)=Crossfab (CD3) (bispecific antibody)
chain 1: EVQLQESGPGLVKPSQSLSLTCSVTGYSITSGYYWNWIRQFPGNKLEWMGYITYDGSNNYNPSLKNRISITRDTSKNQFFLKLNSVTTEDTATYYCADFDYWGQGTTLTVSSASTKGPSVFPLAPSSKSTSGGTAALGCLVKDYFPEPVTVSWNSGALTSGVHTFPAVLQSSGLYSLSSVVTVPSSSLGTQTYICNVNHKPSNTKVDKKVEPKSCDGGGGSGGGGSDIQMTQSPSSLSASVGDRVTITCRASQDIRNYLNWYQQKPGKAPKLLIYYTSRLESGVPSRFSGSGSGTDYTLTISSLQPEDFATYYCQQGNTLPWTFGQGTKVEIKSSASTKGPSVFPLAPSSKSTSGGTAALGCLVKDYFPEPVTVSWNSGALTSGVHTFPAVLQSSGLYSLSSVVTVPSSSLGTQTYICNVNHKPSNTKVDKKVEPKSC
chain 2: EVQLVESGGGLVQPGGSLRLSCAASGYSFTGYTMNWVRQAPGKGLEWVALINPYKGVSTYNQKFKDRFTISVDKSKNTAYLQMNSLRAEDTAVYYCARSGYYGDSDWYFDVWGQGTLVTVSSASVAAPSVFIFPPSDEQLKSGTASVVCLLNNFYPREAKVQWKVDNALQSGNSQESVTEQDSKDSTYSLSSTLTLSKADYEKHKVYACEVTHQGLSSPVTKSFNRGECDGGGGSGGGGSDIVLTQSPSSLSASLGDRVTISCSASQGIRNYLNWYQQRPDGTVKLLIYYTSSLHSGVPSRFSGSGSGTDYSLTISNLEPEDIATYYCQQYSKLPWTFGGGTKLEIKRTVAAPSVFIFPPSDEQLKSGTASVVCLLNNFYPREAKVQWKVDNALQSGNSQESVTEQDSKDSTYSLSSTLTLSKADYEKHKVYACEVTHQGLSSPVTKSFNRGEC
- EC50 of killing (LDH release) of MV-3 cells, human PBMCs, E:T 10:1, ~24 h [1]: 89.8 pM
- EC50 of killing (LDH release) of MV-3 cells, human PBMCs, E:T 10:1, ~24 h (human CD3 on T cells): 89.8 pM

B3: (scFv)2 (antiMCSP/anti huCD3e) (bispecific antibody)
scFv: DIVLTQSPSSLSASLGDRVTISCSASQGIRNYLNWYQQRPDGTVKLLIYYTSSLHSGVPSRFSGSGSGTDYSLTISNLEPEDIATYYCQQYSKLPWTFGGGTKLEIKGGGGSGGGGSGGGGSEVQLQESGPGLVKPSQSLSLTCSVTGYSITSGYYWNWIRQFPGNKLEWMGYITYDGSNNYNPSLKNRISITRDTSKNQFFLKLNSVTTEDTATYYCADFDYWGQGTTLTVSSGGGGSEVQLVESGGGLVQPGGSLRLSCAASGYSFTGYTMNWVRQAPGKGLEWVALINPYKGVSTYNQKFKDRFTISVDKSKNTAYLQMNSLRAEDTAVYYCARSGYYGDSDWYFDVWGQGTLVTVSSVEGGSGGSGGSGGSGGVDDIQMTQSPSSLSASVGDRVTITCRASQDIRNYLNWYQQKPGKAPKLLIYYTSRLESGVPSRFSGSGSGTDYTLTISSLQPEDFATYYCQQGNTLPWTFGQGTKVEIKHHHHHH
- EC50 of killing (LDH release) of MV-3 cells, human PBMCs, E:T 10:1, ~24 h [1]: 57.1 pM
- EC50 of killing (LDH release) of MV-3 cells, human PBMCs, E:T 10:1, ~24 h (human CD3 on T cells): 57.1 pM

B4: M4-3(C1)/ML2(G3) IgG (antibody, V domains shown)
VH: QVQLQESGPGLVKPSQTLSLTCTVSGGSITSGYYWNWIRQHPGKGLEWIGYITFDGSNNYNPSLKSRVTISRDTSKNQFSLKLSSVTAADTAVYYCADFDYWGQGTLVTVSS
VL: DIQMTQSPSSLSASVGDRVTITCRASQGIRNYLNWYQQKPGKAPKLLIYYTSSLHSGVPSRFSGSGSGTDYTLTISSLQPEDFATYYCQQYSALPWTFGQGTKVEIKR
notes: Human IgG1; also called MCSP M4-3(C1)ML2(G3)
- fold increase over parent (IgG KD, comparative binding affinity) [2]: 28.6 fold
- fold increase over parent (IgG KD, comparative binding affinity) (cynomolgus MCSP D3): 10 fold
